T1: Mcm5, subunit of the purified CMG (yeast (strains based on W303), UniProt P29496 1-775)
T1 construct: Mcm5, subunit of yeast CMG; The Mcm5 chain of m4; source: yeast overexpression strain yJCZ3, purified as part of CMG
T1 sequence: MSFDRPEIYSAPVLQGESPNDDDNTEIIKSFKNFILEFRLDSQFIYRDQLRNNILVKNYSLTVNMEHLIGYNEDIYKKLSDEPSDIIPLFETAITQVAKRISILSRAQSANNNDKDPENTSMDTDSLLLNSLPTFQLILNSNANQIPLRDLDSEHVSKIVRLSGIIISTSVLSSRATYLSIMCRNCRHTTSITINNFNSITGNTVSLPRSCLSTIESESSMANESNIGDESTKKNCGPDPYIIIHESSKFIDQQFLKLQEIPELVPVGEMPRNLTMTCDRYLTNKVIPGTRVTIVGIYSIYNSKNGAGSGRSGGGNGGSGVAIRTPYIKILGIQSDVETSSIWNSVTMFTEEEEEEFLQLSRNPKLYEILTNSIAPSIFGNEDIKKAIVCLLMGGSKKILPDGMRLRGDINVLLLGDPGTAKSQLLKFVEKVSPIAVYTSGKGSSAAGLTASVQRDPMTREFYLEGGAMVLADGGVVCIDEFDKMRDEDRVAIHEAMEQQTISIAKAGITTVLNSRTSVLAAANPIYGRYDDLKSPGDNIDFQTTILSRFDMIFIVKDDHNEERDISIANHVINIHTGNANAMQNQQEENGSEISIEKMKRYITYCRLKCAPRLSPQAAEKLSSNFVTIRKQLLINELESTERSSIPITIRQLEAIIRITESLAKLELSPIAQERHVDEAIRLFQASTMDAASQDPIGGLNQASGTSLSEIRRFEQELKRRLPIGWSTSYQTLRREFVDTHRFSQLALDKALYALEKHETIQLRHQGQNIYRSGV

B1: Dpb2, subunit of the CBP-tagged Pol epsilon complexes (deltacat and exo-) (natural protein, yeast (strains based on W303), UniProt P24482 1-689, looked up)
chain: MFGSGNVLPVKIQPPLLRPLAYRVLSRKYGLSIKSDGLSALAEFVGTNIGANWRQGPATIKFLEQFAAVWKQQERGLFIDQSGVKEVIQEMKEREKVEWSHEHPIQHEENILGRTDDDENNSDDEMPIAADSSLQNVSLSSPMRQPTERDEYKQPFKPESSKALDWRDYFKVINASQQQRFSYNPHKMQFIFVPNKKQNGLGGIAGFLPDIEDKVQMFLTRYYLTNDRVMRNENFQNSDMFNPLSSMVSLQNELSNTNRQQQSSSMSITPIKNLLGRDAQNFLLLGLLNKNFKGNWSLEDPSGSVEIDISQTIPTQGHYYVPGCMVLVEGIYYSVGNKFHVTSMTLPPGERREITLETIGNLDLLGIHGISNNNFIARLDKDLKIRLHLLEKELTDHKFVILGANLFLDDLKIMTALSKILQKLNDDPPTLLIWQGSFTSVPVFASMSSRNISSSTQFKNNFDALATLLSRFDNLTENTTMIFIPGPNDLWGSMVSLGASGTLPQDPIPSAFTKKINKVCKNVVWSSNPTRIAYLSQEIVIFRDDLSGRFKRHRLEFPFNESEDVYTENDNMMSKDTDIVPIDELVKEPDQLPQKVQETRKLVKTILDQGHLSPFLDSLRPISWDLDHTLTLCPIPSTMVLCDTTSAQFDLTYNGCKVINPGSFIHNRRARYMEYVPSSKKTIQEEIYI
notes: Dpb2, second largest subunit of yeast Pol epsilon; The complexes carry a CBP tag; The N-terminal domain is not seen in the deltacat map; also called NTD-Dpb2; CTD-Dpb2; source: yeast overexpression strain, galactose-induced; purified as part of Pol epsilon deltacat or exo- (calmodulin beads, Mono Q, gel filtration)

Experiments:
Assay in all cases: cryo-EM structure; 250 nM CMG bound to a desthiobiotin-labelled pre-formed DNA fork on streptavidin beads with 2 mM ATPgammaS, then 80 nM Pol epsilon exo-, 30 °C, eluted with biotin; no crosslinker; 4.9 Å
Settings in all cases: both partners purified
[1] = target: B1
[2] = target: T2, Mcm3, subunit of the purified CMG (yeast (strains based on W303), UniProt P24279 1-971)
T2 construct: Mcm3, subunit of yeast CMG; The Mcm3 chain of m4; source: yeast overexpression strain yJCZ3, purified as part of CMG

[3] = target: T1, Mcm5, subunit of the purified CMG

T2 sequence (P24279 whole entry): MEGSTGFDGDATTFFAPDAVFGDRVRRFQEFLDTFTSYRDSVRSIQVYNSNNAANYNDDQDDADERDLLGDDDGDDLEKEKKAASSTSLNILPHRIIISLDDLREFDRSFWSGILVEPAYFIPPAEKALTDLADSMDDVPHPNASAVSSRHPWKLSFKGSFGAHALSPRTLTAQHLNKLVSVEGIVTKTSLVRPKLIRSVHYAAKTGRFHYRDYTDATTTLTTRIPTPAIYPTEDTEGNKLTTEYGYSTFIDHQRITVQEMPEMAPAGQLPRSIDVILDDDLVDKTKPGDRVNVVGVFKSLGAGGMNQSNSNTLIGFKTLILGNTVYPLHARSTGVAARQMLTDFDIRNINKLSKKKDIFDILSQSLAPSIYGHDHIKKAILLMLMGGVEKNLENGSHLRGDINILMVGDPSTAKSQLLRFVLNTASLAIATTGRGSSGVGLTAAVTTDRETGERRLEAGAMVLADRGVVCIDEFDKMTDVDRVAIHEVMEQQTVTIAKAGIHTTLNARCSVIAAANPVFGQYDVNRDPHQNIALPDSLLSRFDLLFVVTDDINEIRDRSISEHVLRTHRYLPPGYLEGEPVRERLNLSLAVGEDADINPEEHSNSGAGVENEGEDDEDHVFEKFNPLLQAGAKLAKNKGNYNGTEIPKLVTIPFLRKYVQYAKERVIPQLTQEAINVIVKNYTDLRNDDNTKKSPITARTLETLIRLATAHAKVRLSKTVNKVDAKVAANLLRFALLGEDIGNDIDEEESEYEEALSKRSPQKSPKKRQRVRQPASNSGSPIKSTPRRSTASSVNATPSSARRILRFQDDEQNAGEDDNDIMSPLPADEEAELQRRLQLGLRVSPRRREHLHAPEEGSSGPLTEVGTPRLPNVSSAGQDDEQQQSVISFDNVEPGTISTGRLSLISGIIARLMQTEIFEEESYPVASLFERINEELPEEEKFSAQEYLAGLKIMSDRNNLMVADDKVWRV

binding result [1] | binding result [2] | binding result [3] | Binder
binds |  |  | Psf1, GINS subunit of the purified CMG (natural protein, yeast (strains based on W303), Psf1, GINS subunit of yeast CMG; The Psf1 chain of m4; source: yeast overexpression strain yJCZ3, purified as part of CMG) MYGDLGNKLVLEAKRTKQLYARSNQDVNLPMYHEDIIRNILKEVSNLRKNTEYLKEQQQLGMLDDKVAKCQYFVTLLCMERNKRCLLAYQRLRTDILDSMAWNNNGLDLMSSITFSQQDTNNLSHQEQEYLKEYCDLITDLKSGDLVDIDLSGSLVPPSDVFIDVRVLKDAGEIQTEYGVFNLIKDSQFFVRQSDVERLIQQGYLQKI
 | binds | binds | B1

Reference: article PMC6265327, “Structure of DNA-CMG-Pol epsilon elucidates the roles of the non-catalytic polymerase modules in the eukaryotic replisome” (Nature Communications, 2018)
